Assay results from publication PMC7864056, “Functional and structural characterization of allosteric activation of phospholipase Cε by Rap1A” (The Journal of Biological Chemistry, 2020).

Assays:
Experiment in all cases: cell-based or functional assay
[1] = molecular target: R. norvegicus PLCε PH-COOH K2152A (R. norvegicus, UniProt Q99P84 837-2281, K2152A)
[2] = molecular target: R. norvegicus PLCε PH-COOH variant (residues 837-2282) (R. norvegicus, UniProt Q99P84 837-2281)
[3] = molecular target: R. norvegicus PLCε PH-COOH K2150A (R. norvegicus, UniProt Q99P84 837-2281, K2150A)
Sequence of R. norvegicus PLCε PH-COOH K2150A (Q99P84 837-2281 K2150A): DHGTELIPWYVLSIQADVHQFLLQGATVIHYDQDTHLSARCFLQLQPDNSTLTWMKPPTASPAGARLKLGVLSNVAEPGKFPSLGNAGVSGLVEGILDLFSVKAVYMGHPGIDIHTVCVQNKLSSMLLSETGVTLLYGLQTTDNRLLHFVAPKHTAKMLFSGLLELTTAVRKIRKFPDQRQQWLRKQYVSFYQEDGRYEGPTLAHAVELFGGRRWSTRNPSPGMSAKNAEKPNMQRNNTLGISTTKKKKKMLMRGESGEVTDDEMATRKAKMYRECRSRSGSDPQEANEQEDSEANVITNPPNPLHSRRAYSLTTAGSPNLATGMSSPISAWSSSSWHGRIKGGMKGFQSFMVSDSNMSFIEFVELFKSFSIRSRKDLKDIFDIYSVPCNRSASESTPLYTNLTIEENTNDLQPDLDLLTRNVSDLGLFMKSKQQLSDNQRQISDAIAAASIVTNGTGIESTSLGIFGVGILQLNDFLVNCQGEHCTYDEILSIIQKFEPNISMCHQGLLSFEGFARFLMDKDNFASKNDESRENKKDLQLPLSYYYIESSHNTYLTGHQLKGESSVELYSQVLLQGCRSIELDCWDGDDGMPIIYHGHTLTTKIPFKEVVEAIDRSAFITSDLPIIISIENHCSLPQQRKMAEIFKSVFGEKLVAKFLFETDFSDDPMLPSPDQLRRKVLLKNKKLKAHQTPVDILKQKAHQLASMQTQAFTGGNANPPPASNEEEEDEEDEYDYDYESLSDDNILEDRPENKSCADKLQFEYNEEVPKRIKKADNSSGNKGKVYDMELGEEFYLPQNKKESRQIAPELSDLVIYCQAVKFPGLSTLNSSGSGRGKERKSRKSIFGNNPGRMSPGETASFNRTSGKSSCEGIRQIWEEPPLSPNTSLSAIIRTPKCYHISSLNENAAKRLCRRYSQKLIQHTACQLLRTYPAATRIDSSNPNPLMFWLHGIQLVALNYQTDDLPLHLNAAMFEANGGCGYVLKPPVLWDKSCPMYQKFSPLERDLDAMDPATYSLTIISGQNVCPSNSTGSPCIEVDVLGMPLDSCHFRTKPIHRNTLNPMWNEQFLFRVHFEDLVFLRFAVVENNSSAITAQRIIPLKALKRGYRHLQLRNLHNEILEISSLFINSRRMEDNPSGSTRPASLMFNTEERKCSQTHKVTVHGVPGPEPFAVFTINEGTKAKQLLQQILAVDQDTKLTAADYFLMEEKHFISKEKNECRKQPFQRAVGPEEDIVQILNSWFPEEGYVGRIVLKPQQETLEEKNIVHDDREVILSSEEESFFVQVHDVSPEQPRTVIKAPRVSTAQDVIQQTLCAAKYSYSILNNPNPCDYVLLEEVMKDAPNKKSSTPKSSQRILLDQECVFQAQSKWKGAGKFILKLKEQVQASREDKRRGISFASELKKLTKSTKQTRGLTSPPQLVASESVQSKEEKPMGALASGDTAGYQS

Sequence of R. norvegicus PLCε PH-COOH K2152A (Q99P84 837-2281 K2152A): as the sequence (Q99P84 837-2281 K2150A) above, with A1314K, K1316A counted along it
Sequence of R. norvegicus PLCε PH-COOH variant (residues 837-2282) (Q99P84 837-2281, stated change not applied): as the sequence (Q99P84 837-2281 K2150A) above, with A1314K counted along it

B1: constitutively active and prenylated Homo sapiens Rap1A G12V, GTP-bound (natural protein, UniProt P62834 1-184, looked up)
chain: MREYKLVVLGSVGVGKSALTVQFVQGIFVEKYDPTIEDSYRKQVEVDCQQCMLEILDTAGTEQFTAMRDLYMKNGQGFALVYSITAQSTFNDLQDLREQILRVKDTEDVPMILVGNKCDLEDERVVGKEQGQNLARQWCNCAFLESSAKSKINVNEIFYDLVRQINRKTPVEKKKPKKKSCLLL
modifications: prenylated
- Fold activation by Rap1A^G12V of lipase activity, liposome-based [3H]PIP2 hydrolysis assay [1]: 0.9 fold
- Fold activation by Rap1A^G12V of lipase activity, liposome-based [3H]PIP2 hydrolysis assay, increasing concentrations of Rap1A^G12V·GTP [2]: 3 fold
- Fold activation by Rap1A^G12V of lipase activity, liposome-based [3H]PIP2 hydrolysis assay [3]: 1.8 fold
